Like-named read-outs stand apart in the source and are kept apart here.
T1: APRIL (Sigma) (UniProt O75888 105-250, limits assumed)
T1 sequence (looked up): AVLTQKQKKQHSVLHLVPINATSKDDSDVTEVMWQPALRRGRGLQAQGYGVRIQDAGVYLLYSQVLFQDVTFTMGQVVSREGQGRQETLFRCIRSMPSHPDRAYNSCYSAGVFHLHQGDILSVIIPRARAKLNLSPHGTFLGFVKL


How the values were obtained:
[1] = biological target: T2, recombinant human BAFF-Fc (Sino Biological) (human, UniProt Q9Y275 134-285); experiment: blocking ELISA, VNAR diluted with 1.14 nM BAFF-Fc; binding of BAFF-Fc to coated BAFF-R extracellular domain
T2 construct: Bought reagent; also called hBAFF; not shown: Fc moiety detected by anti-human Fc

[2] = biological target: T2, recombinant human BAFF-Fc (Sino …); experiment: ELISA, purified monomeric VNAR on coated BAFF-Fc, anti-FLAG detection
[3] = biological target: T3, human serum albumin (Sigma) (human, UniProt P02768 25-609); experiment: ELISA, periplasmic extract on coated HSA (1 µg/mL), anti-FLAG-HRP
T3 construct: Negative control coat; also called HSA
T3 sequence (P02768 25-609 limits assumed): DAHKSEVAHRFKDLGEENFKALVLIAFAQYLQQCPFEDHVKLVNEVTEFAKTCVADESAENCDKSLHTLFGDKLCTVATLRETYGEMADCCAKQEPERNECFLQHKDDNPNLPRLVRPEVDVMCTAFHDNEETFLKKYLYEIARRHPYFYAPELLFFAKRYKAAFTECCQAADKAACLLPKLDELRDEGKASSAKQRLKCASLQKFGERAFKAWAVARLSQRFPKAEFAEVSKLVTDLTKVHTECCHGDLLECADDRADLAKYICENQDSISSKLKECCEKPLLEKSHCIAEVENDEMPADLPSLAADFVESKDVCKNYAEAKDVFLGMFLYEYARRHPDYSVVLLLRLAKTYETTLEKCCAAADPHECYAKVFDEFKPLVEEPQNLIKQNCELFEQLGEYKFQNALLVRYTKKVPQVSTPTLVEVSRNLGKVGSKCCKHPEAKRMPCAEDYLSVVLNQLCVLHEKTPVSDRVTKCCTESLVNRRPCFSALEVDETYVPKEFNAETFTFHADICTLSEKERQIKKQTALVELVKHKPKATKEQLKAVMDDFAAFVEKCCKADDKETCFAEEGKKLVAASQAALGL

[4] = biological target: T2, recombinant human BAFF-Fc (Sino …); experiment: ELISA, periplasmic extract on coated BAFF-Fc (1 µg/mL), anti-FLAG-HRP
Experimental: (§1) After selection rounds three and four, 93 individual clones were picked and grown in 96 deep-well plates in auto-induction medium (Novagen). Periplasmic protein was extracted by osmotic shock as described in Müller M R et al. (Generation and isolation of target-specific single-domain antibodies from shark immune repertoires. Methods Mol Biol. 2012; 907:177-94) and directly used in a binding ELISA. Briefly, Nunc Maxisorp 96-well plates were coated at 1 μg/mL with either BAFF-Fc or HSA and periplasmic fraction, pre-blocked in PBS-0.1% Tween+2.5% milk, was exposed to the coated surface. After washing in PBS-0.1% Tween, bound VNARs were detected using a peroxidase-conjugated anti-FLAG antibody (Sigma). Absorbance at 450 nm was recorded using an Envision multiwell reader (Perkin Elmer) and BAFF-specific clones were selected using the criteria: BAFF signal/HSA signal ≥4. The DNA sequence of positive clones was determined by the Sanger chain termination method (GATC biotech), using the specific oligonucleotide 5′-[…]-3′. Protein alignments were performed using the BioEdit software.

APRIL (Sigma) = biological target: T1, APRIL (Sigma); experiment: ELISA, periplasmic extract on coated APRIL (1 µg/mL), anti-FLAG-HRP
Experimental: Clones blocking the interaction between BAFF and its three receptors were tested for their ability to cross-react with BAFF's closest related protein, APRIL. Clones were grown in a 96 well format, periplasmic fraction was extracted by osmotic shock as previously described and directly used in a binding ELISA. Nunc Maxisorp 96 well plates were coated at 1 μg/mL with either BAFF-Fc (Sino Biological), HSA (Sigma), or APRIL (Sigma) and periplasmic fraction, pre-blocked in PBS-0.1% Tween+2.5% Milk, was exposed to the coated surface. After washing in PBS-0.1% Tween, bound VNARs were detected using a peroxidase-conjugated anti-FLAG antibody (Sigma). Absorbance at 450 nm was recorded using an Envision multiwell reader (Perkin Elmer).

[5] = biological target: T2, recombinant human BAFF-Fc (Sino …); experiment: blocking ELISA, binding of BAFF-Fc to coated BR3 (BAFF-R); repeats Table 2
[6] = biological target: T2, recombinant human BAFF-Fc (Sino …); experiment: blocking ELISA, VNAR diluted with 0.5 nM BAFF-Fc; binding of BAFF-Fc to coated BCMA
Experimental: (§2) The pre-blocked proteins were then exposed to Nunc Maxisorp 96 well plates which were coated at 1 μg/mL with the recombinant human TACI or BCMA (Peprotech), preblocked in (PBS-0.1% Tween+2.5% Milk). After washing in PBS-0.1% Tween, BAFF bound to its receptor was detected via its Fc moiety using a peroxidase-conjugated anti-human Fc (Sigma). Absorbance at 450 nm was recorded using an Envision multiwell reader (Perkin Elmer) and IC50 values were calculated by fitting the curves (non-linear regression) using GraphPad Prism®. The results are shown in FIG. 15 and the fitted IC50 values are tabulated below.

[7] = biological target: T2, recombinant human BAFF-Fc (Sino …); experiment: cell-based or functional assay
[8] = biological target: recombinant mouse BAFF (R&D Systems) (mouse, UniProt Q9WU72 127-309); experiment: Mouse cross-reactivity grade (binds to both human and mouse BAFF); assay not described
recombinant mouse BAFF (R&D Systems), sequence (Q9WU72 127-309 limits assumed): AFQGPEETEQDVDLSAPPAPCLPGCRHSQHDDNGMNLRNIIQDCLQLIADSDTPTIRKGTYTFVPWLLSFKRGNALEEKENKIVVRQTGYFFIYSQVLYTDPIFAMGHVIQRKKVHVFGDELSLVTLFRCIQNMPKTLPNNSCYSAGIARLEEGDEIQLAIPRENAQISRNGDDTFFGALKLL

[9] = biological target: T2, recombinant human BAFF-Fc (Sino …); experiment: blocking ELISA, VNAR diluted with 0.5 nM BAFF-Fc; binding of BAFF-Fc to coated TACI
Experimental: as §2

[10] = biological target: T3, human serum albumin (Sigma); experiment: ELISA, periplasmic extract on coated HSA (1 µg/mL), anti-FLAG-HRP; remark: listed apart in the source
Experimental: as §1

| Binder | IC50 [1] | EC50 [2] | binding result [3] | binding result [4] | binding result (APRIL (Sigma)) | IC50 [5] | IC50 [6] | CELLULAR IC50 [7] | binding result [8] | IC50 [9] | binding result [10] |
| --- | --- | --- | --- | --- | --- | --- | --- | --- | --- | --- | --- |
| ID2-101A12 (VNAR, Nurse shark VNAR single domain, monomer) VNAR: AARVDQTPQTVTKETGESLTINCVLRDASYALGSTCWYRKKSGSRNEESISKGGRYVETVNSGSKSFSLRINDLTVEDSGTYRCKVRDPLLFPRDRCDGESKDVYGGGTVVTVNA | 49.2 nM | 4.57 nM | no binding | – | – | – | – | – | – | – | – |
| ID2-101C02 (VNAR, Nurse shark VNAR single domain, monomer in periplasmic extract) VNAR: AARVDQTPQTITKETGESLTINCVLRDNNCALSTTYWYRKKSGSTNEENISKGGRYVETVNSGSKSFSLKINDLTVKDSGTYRCKVTRDPLFCSYRASKRHDVYGGGTVVTVNA | – | – | – | binds | – | – | – | – | – | – | – |
| ID2-101A09 (VNAR, Nurse shark VNAR single domain, monomer) VNAR: AARVDQTPQTITKETGESLTINCVLRDNNCALSTTYWYRKKSGSTNEESISKGGRYVETVNSGSKSFSLRINDLTVEDSGTYRCKVREDPLMCRYYLDRYRDVYGGGTVVTVNA | 9.7 nM | 4.9 nM | no binding | – | no binding | 9.7 nM | 23.6 nM | 215 nM | binds | 27.2 nM | – |
| ID2-101B05 (VNAR, Nurse shark VNAR single domain, monomer) VNAR: AARVDQTPRSVTKETGESLTINCVLRDSICALSSTHWYRKKSGSTNEESISKGGRYVETVNSGSKSFSLRINDLTVEDSGTYRCKVNHDLLTSSRRCQSQIKDVYGGGTVVTVNA | 148 nM | 11.8 nM | – | – | no binding | – | – | – | – | – | no binding |
| ID2-101C03 (VNAR, Nurse shark VNAR single domain, monomer in periplasmic extract) AQAAARVDQTPRSVTKETGESLTINCVLRDSICALSSTHWYRKKSGSTNEESISLGGRYVETVNSGSKSFSLKINDLTVEDSGTYRCKVTRYVVFSGSTCRMRRADVYGGGTVVTMNAASGAHHHHHHGADYKDDDDK | – | – | – | binds | – | – | – | – | – | – | – |
| ID2-101B01 (VNAR, Nurse shark VNAR single domain, monomer) VNAR: AARVDQTPQTITKETGESLTINCVLRDSNCALSSTYWYRKKSGSTNEESISKGGRYVETVNSGSKSFSLRINDLTVEDSGTYRCNVAPTIISGCSIKRRDVYGGGTAVTVNA | 91.2 nM | 7.4 nM | – | – | – | – | – | – | – | – | no binding |
| ID2-101A05 (VNAR, Nurse shark VNAR single domain, tested as monomer) VNAR: AARVDQTPQTITKETGESLTINCVLRDNNCALSTTYWYRKKSGSTNEENISKGGRYVETVNSGSKSFSLRINDLTVEDSGTYRCKVSKDWLLCRDRGRRETDVYGDGTAVTVNA | 13.8 nM | 1.5 nM | – | – | no binding | 13.8 nM | 17.4 nM | 135 nM | binds | 57.8 nM | no binding |
| ID2-101A01 (VNAR, Nurse shark VNAR single domain, monomer in periplasmic extract) VNAR: AARVDQTPQTITKETGESLTINCVLRDSNCALSNLYWYRKKSGSTNEESISLGGRYVETVNSGSKSFSLRINDLTVEDSGTYRCKVRRARVIGGEYCRVQWQDVYGGGTAVTVNA | – | – | – | binds | – | – | – | – | – | – | – |
| ID2-101B03 (VNAR, Nurse shark VNAR single domain, monomer in periplasmic extract) VNAR: AARVDQTPRSVTKETGESLTINCVLRDNNCALSTTYWYRKKSGSTNEENISKGGRYVETVNSGSKSFSLRINDLTVEDSGTYRCKVKPDLLFCSSSGLGLIQDVYGGGTAVTVNA | – | – | – | binds | – | – | – | – | – | – | – |

Continued, values first:

| IC50 [1] | EC50 [2] | binding result [3] | binding result [4] | binding result (APRIL (Sigma)) | IC50 [5] | IC50 [6] | CELLULAR IC50 [7] | binding result [8] | IC50 [9] | binding result [10] | Binder |
| --- | --- | --- | --- | --- | --- | --- | --- | --- | --- | --- | --- |
| 3.85 nM | 2.13 nM | – | – | – | – | – | – | – | – | no binding | ID2-101C01 (VNAR, Nurse shark VNAR single domain, monomer) VNAR: AARVDQTPQTITKETGESLTINCVLRDNNCALSTTYWYRKKSGSTNEENISKGGRYVETVNSGSKSFSLRINDLTVEDSGTYRCKVRLDLLLCRNGSTNSIDVYGGGTAVTVNA |
| 2.8 nM | 1 nM | – | – | no binding | 2.8 nM | 10.5 nM | ~100 nM | binds | 14.1 nM | no binding | ID2-101B10 (VNAR, Nurse shark VNAR single domain, monomer) VNAR: AARVDQTPQTITKETGESLTINCVLRDSNCALSSTYWYRKKSGSTNEESISKGGRYVETVNSGSKSFSLRINDLTVEDSGTYRCKVRIDPLLCNASYVKWDDVYGGGTVVTVNA |
| 6.8 nM | 0.5 nM | – | – | no binding | 6.8 nM | 24.5 nM | 58 nM | – | 82.7 nM | no binding | ID2-101A07 (VNAR, Nurse shark VNAR single domain, tested as monomer) VNAR: AARVDQTPQTITKETGESLTINCVLRDSNCALSNLYWYRKKSGSTNEESISLGGRYVETVNSGSKSFSLRINDLTVEDSGTYRCKVQLPYDPLTKECILGRMDVYGDGTAVTVNA |
| 6.85 nM | 2.49 nM | – | – | no binding | – | – | – | – | – | no binding | ID2-101B11 (VNAR, Nurse shark VNAR single domain, monomer) VNAR: AARVDQTPRSVTKETGESLTINCVLRDSNCALSSTYWYRKKSGSTNEENISKGGRYVETVNSGSKSFSLRINDLTVEDSGTYRCKVMLDPLLCPALLESMTDVYGGGTAVTVNA |
| 6.8 nM | 0.8 nM | no binding | – | – | 6.8 nM | 18.9 nM | 60 nM | – | 24 nM | – | ID2-101B07 (VNAR, Nurse shark VNAR single domain, monomer) VNAR: AARVDQTPRSVTKETGESLTINCVLRDSICALSSTHWYRKKSGSTNEESISKGGRYVETVNSGSKSFSLRINDLTVEDSGTYRCKVHGGRSTGLCGDVLLAGDVYGGGTAVTVNA |
| 12.3 nM | 17.2 nM | – | – | no binding | – | – | – | – | – | no binding | ID2-101A03 (VNAR, Nurse shark VNAR single domain, monomer) VNAR: AARVDQTPQTITKETGESLTINCVLRDNNCALSTTYWYRKKSGSTNEENISKGGRYVETVNSGSKSFSLKINDLTVEDSGTYRCKVRVDRLLCGWRVGRRQLGDVYGGGTVVTVNA |
| 9.32 nM | 2.7 nM | – | – | no binding | – | – | – | – | – | no binding | ID2-101B12 (VNAR, Nurse shark VNAR single domain, monomer) VNAR: AARVDQTPQTITKETGESLTINCVLRDSNCALSSTYWYRKKSGSTNEESISKGGRYVETVNSGSKSFSLRINDLTVEDSGTYRCKVFIDPLLCSRDALGFSDVYGDGTAVTVNA |
